The results in this text go back to the supplement of paper PMC9112550, “Optimization of the antimicrobial peptide Bac7 by deep mutational scanning” (BMC Biology, 2022).
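Further: peptides expressed intracellularly from a pBAD plasmid library in pooled LB shake-flask culture, induced with 0.3% L-arabinose, DNA abundance read by NGS, three biological replicates, DESeq2 with apeglm shrinkage.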

For this series, the system named is Escherichia coli TOP10. As to the kind of experiment: shrunken log2 fold change of peptide-encoding DNA abundance (4.5 h post-induction vs induction); higher = less antimicrobial activity (less host growth inhibition). The settings on record: time post-induction: 4.5 h; library: site-saturation at positions 5, 18, 19, 20.
Consider RRIRVRPPRLPRPRPRPGPDPRP, for which the “shrunken log2 fold change” value came to 0.465.
Next, RRIRGRPPRLPRPRPRPGRWPRP: 0.716.
Next, RRIRERPPRLPRPRPRPLQTPRP: 0.22; RRIRQRPPRLPRPRPRPIRWPRP: -0.0554.
For RRIRKRPPRLPRPRPRPLWQPRP the value was 0.442; for RRIRARPPRLPRPRPRPIAAPRP, 0.925; for RRIRPRPPRLPRPRPRPFRMPRP, -0.134.
Consider RRIRWRPPRLPRPRPRPVHDPRP, for which the “shrunken log2 fold change” value was determined as 0.141.
For RRIRQRPPRLPRPRPRPEDPPRP the value was -0.00697.
For RRIRTRPPRLPRPRPRPQKIPRP the value was -0.123; for RRIRGRPPRLPRPRPRPDLYPRP, 0.574; for RRIRMRPPRLPRPRPRPGPDPRP, 0.768.
For RRIRGRPPRLPRPRPRPFILPRP the value was -0.196.
On to RRIRTRPPRLPRPRPRPMGRPRP, for which the “shrunken log2 fold change” value stood at 0.217.
Next, RRIRFRPPRLPRPRPRPEVEPRP: 0.00408; RRIRSRPPRLPRPRPRPWAVPRP: -0.0517.
Regarding RRIRKRPPRLPRPRPRPISDPRP, the “shrunken log2 fold change” value was -0.0768.
In the case of RRIRNRPPRLPRPRPRPRGLPRP, the “shrunken log2 fold change” value is 0.342.
For the sequence RRIRIRPPRLPRPRPRPAGNPRP, the “shrunken log2 fold change” value is -0.0516.
Next, RRIRIRPPRLPRPRPRPMWPPRP: 0.128; RRIRRRPPRLPRPRPRPYISPRP: -0.485; RRIRKRPPRLPRPRPRPKCWPRP: 0.382.
Next, RRIRFRPPRLPRPRPRPKQDPRP: 0.21.
Next, RRIRMRPPRLPRPRPRPFPYPRP: -0.23.
In the case of RRIRWRPPRLPRPRPRPTRVPRP, the “shrunken log2 fold change” value is 0.825.
RRIRMRPPRLPRPRPRPECLPRP: the “shrunken log2 fold change” value stood at 1.6.
For RRIRERPPRLPRPRPRPSHYPRP the value was -0.611.
Next, RRIRQRPPRLPRPRPRPNIGPRP: -0.0212; RRIRVRPPRLPRPRPRPPMPPRP: 0.368; RRIRDRPPRLPRPRPRPVCQPRP: 0.0526.
For RRIRKRPPRLPRPRPRPRVVPRP the value was 0.143; for RRIRFRPPRLPRPRPRPHKQPRP, -0.0759; for RRIRDRPPRLPRPRPRPKENPRP, 0.0579.
On to RRIRWRPPRLPRPRPRPRTFPRP, for which the “shrunken log2 fold change” value turned out to be 0.3.
For RRIRMRPPRLPRPRPRPKQKPRP the value was 0.0402; for RRIRGRPPRLPRPRPRPKMQPRP, 0.292; for RRIRRRPPRLPRPRPRPIGEPRP, -0.00811.
Next, RRIRDRPPRLPRPRPRPKELPRP: 0.0843; RRIRGRPPRLPRPRPRPISFPRP: 0.0122.
For the sequence RRIRSRPPRLPRPRPRPPTRPRP, the “shrunken log2 fold change” value came out at 0.651.
Next, RRIRSRPPRLPRPRPRPQGMPRP: -0.124; RRIRQRPPRLPRPRPRPYYCPRP: -0.332.
For RRIRYRPPRLPRPRPRPMHTPRP the value was -0.254; for RRIRDRPPRLPRPRPRPWETPRP, 0.192; for RRIRHRPPRLPRPRPRPVYPPRP, -0.529.
Take RRIRRRPPRLPRPRPRPLFSPRP: the “shrunken log2 fold change” value was -0.0439.
For RRIRPRPPRLPRPRPRPNNDPRP the value was -0.544; for RRIRERPPRLPRPRPRPQVGPRP, -0.0112.
Regarding RRIRCRPPRLPRPRPRPDCWPRP, the “shrunken log2 fold change” value came out at 0.23.
Next, RRIRLRPPRLPRPRPRPVCVPRP: -0.115.
Next, RRIRYRPPRLPRPRPRPELKPRP: -0.162; RRIRQRPPRLPRPRPRPIDCPRP: 0.0167.
For RRIRWRPPRLPRPRPRPNDKPRP the value was -0.291; for RRIRLRPPRLPRPRPRPNIYPRP, -0.585.
On to RRIRGRPPRLPRPRPRPYNCPRP, for which the “shrunken log2 fold change” value was -0.0269.
As for RRIRWRPPRLPRPRPRPPVAPRP, the “shrunken log2 fold change” value was 0.983.
With RRIRARPPRLPRPRPRPCVQPRP, the “shrunken log2 fold change” value stood at 0.217.
For RRIRGRPPRLPRPRPRPKYMPRP, the “shrunken log2 fold change” value was 0.104.
On to RRIRRRPPRLPRPRPRPQWYPRP, for which the “shrunken log2 fold change” value was -0.258.
Consider RRIRTRPPRLPRPRPRPAHVPRP, for which the “shrunken log2 fold change” value came to 0.0505.
On to RRIRCRPPRLPRPRPRPLKCPRP, for which the “shrunken log2 fold change” value was -0.228.
Regarding RRIRSRPPRLPRPRPRPIYYPRP, the “shrunken log2 fold change” value was -0.641.
As to RRIRSRPPRLPRPRPRPKLDPRP, the “shrunken log2 fold change” value is -0.037.
For the sequence RRIRDRPPRLPRPRPRPPHYPRP, the “shrunken log2 fold change” value was found to be 0.0761.
As to RRIRTRPPRLPRPRPRPHCCPRP, the “shrunken log2 fold change” value was 0.142.
As for RRIRIRPPRLPRPRPRPRRDPRP, the “shrunken log2 fold change” value was -0.108.
Take RRIRYRPPRLPRPRPRPGYYPRP: the “shrunken log2 fold change” value is -0.545.
On to RRIRIRPPRLPRPRPRPFQKPRP, for which the “shrunken log2 fold change” value is -0.0135.
For RRIRMRPPRLPRPRPRPVACPRP the value was 0.122; for RRIRGRPPRLPRPRPRPYCYPRP, 0.0406.
Next, RRIRMRPPRLPRPRPRPEVFPRP: 1.35.
Next, RRIRQRPPRLPRPRPRPPPRPRP: 1.25; RRIRMRPPRLPRPRPRPAMMPRP: 0.59; RRIRPRPPRLPRPRPRPLRMPRP: 0.596.
Turning to RRIRMRPPRLPRPRPRPKSIPRP, the “shrunken log2 fold change” value amounted to 0.301.
Take RRIRPRPPRLPRPRPRPYTYPRP: the “shrunken log2 fold change” value is -0.0956.
For RRIRDRPPRLPRPRPRPTLHPRP the value was 0.605.
Regarding RRIRQRPPRLPRPRPRPWRQPRP, the “shrunken log2 fold change” value was found to be 0.029.
On to RRIRMRPPRLPRPRPRPWLFPRP, for which the “shrunken log2 fold change” value came to 0.457.
With RRIRQRPPRLPRPRPRPIREPRP, the “shrunken log2 fold change” value was -0.0225.
Turning to RRIRHRPPRLPRPRPRPFIKPRP, the “shrunken log2 fold change” value is -0.138.
RRIRQRPPRLPRPRPRPQEQPRP: the “shrunken log2 fold change” value was -0.000777.
Next, RRIRNRPPRLPRPRPRPMEFPRP: -0.136; RRIRCRPPRLPRPRPRPEGTPRP: 0.137; RRIRFRPPRLPRPRPRPYMDPRP: -0.0184.
In the case of RRIRNRPPRLPRPRPRPHVTPRP, the “shrunken log2 fold change” value is -0.357.
Regarding RRIRPRPPRLPRPRPRPHDQPRP, the “shrunken log2 fold change” value turned out to be 0.134.
For the sequence RRIRPRPPRLPRPRPRPNYMPRP, the “shrunken log2 fold change” value was -0.737.
Next, RRIRKRPPRLPRPRPRPIVRPRP: -0.0167; RRIRQRPPRLPRPRPRPNANPRP: 0.00568.
Next, RRIRFRPPRLPRPRPRPHPCPRP: -0.231; RRIRWRPPRLPRPRPRPMFTPRP: -0.0283; RRIRARPPRLPRPRPRPVAAPRP: 1.54.
As for RRIRQRPPRLPRPRPRPPVNPRP, the “shrunken log2 fold change” value was -0.0759.
Next, RRIRVRPPRLPRPRPRPNQPPRP: -0.0412; RRIRSRPPRLPRPRPRPGEWPRP: -0.0156.
Next, RRIRFRPPRLPRPRPRPPWEPRP: 0.124; RRIRQRPPRLPRPRPRPHASPRP: -0.00783.
Consider RRIRIRPPRLPRPRPRPPCPPRP, for which the “shrunken log2 fold change” value is -0.141.
As to RRIRQRPPRLPRPRPRPDHAPRP, the “shrunken log2 fold change” value was found to be 0.014.
For the sequence RRIRMRPPRLPRPRPRPKKHPRP, the “shrunken log2 fold change” value worked out at 0.405.
Turning to RRIRVRPPRLPRPRPRPTRHPRP, the “shrunken log2 fold change” value came out at 0.156.
For RRIRERPPRLPRPRPRPFDMPRP the value was -0.0448; for RRIRFRPPRLPRPRPRPNGSPRP, 0.0396.
Turning to RRIRPRPPRLPRPRPRPISAPRP, the “shrunken log2 fold change” value was -0.0726.
Regarding RRIRSRPPRLPRPRPRPPKTPRP, the “shrunken log2 fold change” value is -0.0288.
Next, RRIRMRPPRLPRPRPRPCNSPRP: -0.138; RRIRRRPPRLPRPRPRPKHTPRP: 0.32.
As for RRIRMRPPRLPRPRPRPILQPRP, the “shrunken log2 fold change” value worked out at 0.133.
Next, RRIRFRPPRLPRPRPRPVYMPRP: -0.969; RRIRNRPPRLPRPRPRPMFFPRP: -0.189; RRIRERPPRLPRPRPRPVYSPRP: -0.409.
As for RRIRHRPPRLPRPRPRPRHAPRP, the “shrunken log2 fold change” value worked out at 0.164.
Next, RRIRRRPPRLPRPRPRPRKEPRP: 0.4.
For RRIRFRPPRLPRPRPRPMWFPRP the value was -0.0145; for RRIRRRPPRLPRPRPRPKVNPRP, 0.468.
For RRIRTRPPRLPRPRPRPGQHPRP the value was 0.351; for RRIRGRPPRLPRPRPRPLMTPRP, 2.81; for RRIRCRPPRLPRPRPRPRPAPRP, 0.834.
Regarding RRIRFRPPRLPRPRPRPEETPRP, the “shrunken log2 fold change” value worked out at 0.00709.
For RRIRCRPPRLPRPRPRPKQEPRP the value was 0.0247.
For RRIRIRPPRLPRPRPRPCVDPRP the value was -0.0909.
As for RRIRQRPPRLPRPRPRPCVHPRP, the “shrunken log2 fold change” value was -0.629.
In the case of RRIRYRPPRLPRPRPRPCSEPRP, the “shrunken log2 fold change” value is -0.067.
For RRIRMRPPRLPRPRPRPVFPPRP the value was 0.0941.
